The values below come from patent publication US20180319855A1, “GENETICALLY MUTATED AEQUORIN-BASED BIOSENSORS WITH EXTRA SENSITIVITY TO CALCIUM AND IMPROVED BIOLUMINESCENCE INTENSITY” (CENTRE NATIONAL DE LA RECHERCHE SCIENTIFIQUE (CNRS), priority 2015, published 2018).

The nature of data set [1]: Thermostability: relative bioluminescence activity after 30 min incubation. The data set is classed as physicochemical. Particulars: CLZ-f. Here is the method: Thermostability of aequorin and redquorin mutant with increased affinity for calcium were compared to wt-aequorin (FIG. 5). The purified photoprotein samples were reconstituted with CLZ-f (as detailed earlier) and let to calibrate at room temperature (20-24° C.) for 20 min before taken the first measurement of total counts using saturating calcium solution (50 mM Tris-HCl, 100 mM CaCl2, pH 7.5). Samples were then incubated at two different temperatures (30 to 40° C.) for 30 min, and let equilibrate at room temperature for 15 minbefore taken the second measurement of total counts in the sample. The relative bioluminescence activity at each temperature was calculated by the ratio 2nd counts (at target T° C.)/1st counts (at initial T° C.) multiplied by 100.
Table 6 highlights the analysis of thermostability data obtained at two temperatures for aequorin and redquorin mutants, as well as CitA and GA. The values represent the degree of change in luminescence activity compared to wt-aeq, at each temperature. All values are relative to wt-aequorin (at each temperature) and were calculated by dividing the obtained data for each mutant/variant by the data for wt-aeq (as reference). The data were taken from FIG. 5.

The nature of data set [2]: Ca2+ sensitivity curves of reconstituted photoproteins (L/Lmax vs free Ca2+). The data set is classed as biochemical. The conditions noted are these: for Relative intensity at pCa 6.5 / Relative intensity at pCa 7.2: CLZ-f, L/Lmax compared to Aeq-wt; for EC50: aequorin proteins reconstituted with CLZ-f, sigmoidal curve fit, mean ± SD, n at least 3, read-out: Calcium sensitivity, EC50. As for the experimental part: For in vitro reconstitution, the purified and concentrated samples of apoaequorin and redquorin mutant proteins were buffer-exchanged to 50 mM Tris-HCl (pH 7.5), 150 mM NaCl, 10 mM EGTA, 5 mM ß-mercaptoethanol, supplemented with 5 μM CLZ-f or CLZ-native and incubated overnight at 4° C., in the dark. The next day, samples were passed through molecular weight cut-offs (AmiconUitra MWCO, 10K and 50K, from Millipore), then resuspended in Zero-Ca^2+ buffer (30 mM MOPS, 100 mM KCl and 10 mM EGTA, pH 7.2) for calcium affinity, emission decay kinetics and spectral analysis assays. As for in cellulo reconstitution, HEK cells transiently expressing the proteins of apoaequorin and aporedquorin mutants were washed twice with Hank's Balanced Salt Solution (HBSS) and incubated in the dark, with 4 μM of the desired CLZ diluted in OptiMEM I medium (Gibco), for 2-3h at 37° C. and 5% CO2. Cells were washed once and maintained in HBSS at 37° C. for 20 min before the experiment.
Functional Analysis of Aequorin Mutants and Fusions Ca^2+ Sensitivity Curves.
Purified and reconstituted samples with CLZ-f or CLZ-native already buffered-exchanged to zero-calcium buffer ensured to minimize calcium contamination that could interfere with the measurements. Fifteen microliter aliquot of photoprotein samples (concentration range, 50 to 90 ng/μl) was placed in a home-made luminometer and mixed with 300 μl solution containing the desired concentration of free-Ca^2+. The solutions of EGTA-buffered with varying free-Ca^2+ prepared according to the manufacturer instruction for the kit (Molecular Probes, Invitrogen). Integration of the luminescence emission (per second) was measured for 20 seconds (background) before injecting a solution with known [free-Ca^2+] and lasted until stable or decaying signal (at final-phase) was obtained. At this point, 400 μl of a saturating calcium solution (30 mM MOPS, 100 mM CaCl2, pH 7.2) was rapidly injected (less than 30 ms) and light integration continued until all aequorin had been consumed and light intensity had gone back to background signal. Luminescence intensity (L) at different [Ca^2+] was taken as the response peak value in case of decaying signal or as the stable value in case of stable emission. Lmax, was measured by integrating all remaining luminescence signal from that moment (L value) to the end of the experiment. The EC50 values were extracted from a sigmoidal dose-response fit (variable slope) using GraphPad Prism software.

Changes are numbered by the printed parent chain. In names and notes the source's numbering stands.

B1: Q159G: apoaequorin mutant, glutamine 159 replaced by glycine (SEQ ID NO:7) (protein)
chain: SKLTSDFDNPRWIGRHKHMFNFLDVNHNGKISLDEMVYKASDIVINNLGATPEQAKRHKDAVEAFFGGAGMKYGVETDWPAYIEGWKKLATDELEKYAKNEPTLIRIWGDALFDIVDKDQNGAITLDEWKAYTKAAGIIQSSEDCEETFRVCDIDESGGLDVDEMTRQHLGFWYTMDPACEKLYGGAVP
modifications: mutant aequorin
For B1, the “Thermostability, luminescence activity relative to wt-aequorin” value in data set [1] (30° C. for 30 min) is 0.96. Also, the “Thermostability, luminescence activity relative to wt-aequorin” value in data set [1] (40° C. for 30 min) turned out to be 0.92. For the same molecule, in data set [2], the “Relative intensity at pCa 6.5” value was 3.3; the “Relative intensity at pCa 7.2” value came to 3.2; the EC50 (in general, the concentration at which the effect is half-maximal) turned out to be 492 ± 10 nM.

B2: QD + AD: apoaequorin double mutant Q159D + A123D (SEQ ID NO:15) (protein)
chain: B1 chain with A123D, G159D
modifications: mutant aequorin
B2: the “Thermostability, luminescence activity relative to wt-aequorin” value in data set [1] (30° C. for 30 min) is 0.97. Moreover, the “Thermostability, luminescence activity relative to wt-aequorin” value in data set [1] (40° C. for 30 min) is listed as 0.94. In addition, in data set [2], the “Relative intensity at pCa 6.5” value was found to be 26.2, the “Relative intensity at pCa 7.2” value came out at 15.0 and the EC50 turned out to be 271 ± 15 nM.
